{"source": "patent US12144818B2", "about": "“Method for treating cancer in a human patient by administering an anti-CD37 immunoconjugate using various dosing regimens” (DEBIOPHARM INTERNATIONAL, S.A., priority 2018, dated 2024)", "key": {"[1]": {"conditions": "QW versus Q3W regimen, with rituximab", "protocol": "Adverse events are monitored continuously throughout the study. Adverse events include any noxious, pathologic, or unintended change in anatomical, physiologic, or metabolic function as indicated by physical signs, symptoms, or laboratory changes occurring in any phase of a clinical study, whether or not considered study drug-related. PK parameters that are evaluated include, but are not limited to: Cmax, Tmax, Terminal half-life (t1/2), Vss, CL, AUC0-t, AUCinf."}, "[2]": {"assay": "Phase 1 monotherapy study, safety", "assay_type": "in vivo, human", "protocol": "As such, a more frequent QW dosing schedule with 0.4/0.2/0.2 mg/kg (combined with rituximab Q3W at 375 mg/m^2) should not increase the risk of neutropenia."}, "[3]": {"test_system": "panel of cell lines representative of diverse NHL subtypes (ABC and GCB DLBCL, CLL, MCL)", "conditions": "in combination with rituximab; described in WO 2016/200676; cited from earlier work"}, "CD37 [4]": {"target": "T1, CD37 (Homo sapiens, UniProt P11049)", "T1 construct": "endogenous in cells; host or cells: CD3+ T and CD56+ NK lymphocytes in blood samples from DLBCL patients of Cohorts A and B", "T1 sequence (P11049 1-281)": "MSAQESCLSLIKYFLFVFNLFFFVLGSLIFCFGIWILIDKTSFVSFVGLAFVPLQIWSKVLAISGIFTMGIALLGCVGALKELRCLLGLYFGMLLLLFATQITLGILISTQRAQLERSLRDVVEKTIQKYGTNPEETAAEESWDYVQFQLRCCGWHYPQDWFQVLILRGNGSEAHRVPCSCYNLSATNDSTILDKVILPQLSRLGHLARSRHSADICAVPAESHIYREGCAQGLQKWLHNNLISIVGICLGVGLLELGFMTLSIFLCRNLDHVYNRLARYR", "assay": "CD37 receptor occupancy on CD3+T and CD56+NK cells of Cohort A and B subjects", "assay_type": "in vivo", "excerpt": "The maximum RO observed at C1D2 (cycle 1-dose 2) and C1D3 was greater than 90% for both cohorts."}, "[5]": {"conditions": "low doses such as 0.4 mg/kg and 0.2 mg/kg; cited from earlier work"}, "CD37 [6]": {"target": "T1, CD37", "assay": "Theoretical receptor occupancy derived from observed Cmax, monotherapy Phase 1 study", "assay_type": "in vivo", "conditions": "even at low dose levels", "protocol": "Therefore, a 0.4 mg/kg loading dose followed by 2 weekly doses of 0.2 mg/kg is expected to provide adequate target saturation across a 3-weeks cycle."}}}
{"substance": "Debio 1562: immunoconjugate containing the huCD37-3 antibody, the SMCC linker, and the DM1 maytansinoid", "values": [{"measurement": "safety", "setting": "[1]", "value": "comparable in the QW regimen and the Q3W regimen"}, {"measurement": "maximum tolerated dose (MTD)", "setting": "[2]; Phase 1, without G-CSF", "value": 1, "unit": "mg/kg"}, {"measurement": "neutrophil count", "setting": "[2]; majority of patients, single Q3W dosing with 0.2-0.4 mg/kg, Phase 1", "value": "no decrease in neutrophil count"}, {"measurement": "pro-apoptotic activity of the combination", "setting": "[3]", "value": "synergistic pro-apoptotic activity"}, {"measurement": "CD37 receptor occupancy (RO) after administration", "setting": "CD37 [4]; C1D1, CD3+T and CD56+NK lymphocytes, Cohorts A and B", "value": "greater than 80%"}, {"measurement": "maximum RO", "setting": "CD37 [4]; C1D2 and C1D3, both cohorts", "value": "greater than 90%"}, {"measurement": "RO just before re-administration", "setting": "CD37 [4]; samples just before re-administration in cycle 2 and cycle 3", "value": "No RO was observed"}, {"measurement": "clearance", "setting": "[5]", "value": "substantially higher at low doses"}, {"measurement": "half-life", "setting": "[5]", "value": "lower"}, {"measurement": "saturation of the CD37 sites (theoretical receptor occupancy)", "setting": "CD37 [6]", "value": "> 95", "unit": "%"}]}
